The record followed here is paper PMC4227786.

In one test the target is 14-3-3θ (UniProt P27348). Put plainly: co-immunoprecipitation. The note with it: reference: wild type hnRNPA1; sites S4,S6.
Another test has as its target 14-3-3σ (UniProt P31947). Briefly: co-immunoprecipitation. The note with it: reference: wild type hnRNPA1; sites S4,S6.

As to hnRNPA1 (from UniProt P09651) S4AS6A, the “binding against the reference” value with 14-3-3θ and with 14-3-3σ was “lost” each time.
